Experimental data reported in IntAct's records for PubMed 28966017.

B1: MYND-type zinc finger-containing chromatin reader ZMYND8 (Homo sapiens), Q9ULU4 (parent)
chain: MDISTRSKDPGSAERTAQKRKFPSPPHSSNGHSPQDTSTSPIKKKKKPGLLNSNNKEQSELRHGPFYYMKQPLTTDPVDVVPQDGRNDFYCWVCHREGQVLCCELCPRVYHAKCLRLTSEPEGDWFCPECEKITVAECIETQSKAMTMLTIEQLSYLLKFAIQKMKQPGTDAFQKPVPLEQHPDYAEYIFHPMDLCTLEKNAKKKMYGCTEAFLADAKWILHNCIIYNGGNHKLTQIAKVVIKICEHEMNEIEVCPECYLAACQKRDNWFCEPCSNPHPLVWAKLKGFPFWPAKALRDKDGQVDARFFGQHDRAWVPINNCYLMSKEIPFSVKKTKSIFNSAMQEMEVYVENIRRKFGVFNYSPFRTPYTPNSQYQMLLDPTNPSAGTAKIDKQEKVKLNFDMTASPKILMSKPVLSGGTGRRISLSDMPRSPMSTNSSVHTGSDVEQDAEKKATSSHFSASEESMDFLDKSTASPASTKTGQAGSLSGSPKPFSPQLSAPITTKTDKTSTTGSILNLNLDRSKAEMDLKELSESVQQQSTPVPLISPKRQIRSRFQLNLDKTIESCKAQLGINEISEDVYTAVEHSDSEDSEKSDSSDSEYISDDEQKSKNEPEDTEDKEGCQMDKEPSAVKKKPKPTNPVEIKEELKSTSPASEKADPGAVKDKASPEPEKDFSEKAKPSPHPIKDKLKGKDETDSPTVHLGLDSDSESELVIDLGEDHSGREGRKNKKEPKEPSPKQDVVGKTPPSTTVGSHSPPETPVLTRSSAQTSAAGATATTSTSSTVTVTAPAPAATGSPVKKQRPLLPKETAPAVQRVVWNSSSKFQTSSQKWHMQKMQRQQQQQQQQNQQQQPQSSQGTRYQTRQAVKAVQQKEITQSPSTSTITLVTSTQSSPLVTSSGSMSTLVSSVNADLPIATASADVAADIAKYTSKMMDAIKGTMTEIYNDLSKNTTGSTIAEIRRLRIEIEKLQWLHQQELSEMKHNLELTMAEMRQSLEQERDRLIAEVKKQLELEKQQAVDETKKKQWCANCKKEAIFYCCWNTSYCDYPCQQAHWPEHMKSCTQSATAPQQEADAEVNTETLNKSSQGSSSSTQSAPSETASASKEKETSAEKSKESGSTLDLSGSRETPSSILLGSNQGSDHSRSNKSSWSSSDEKRGSTRSDHNTSTSTKSLLPKESRLDTFWD
partner: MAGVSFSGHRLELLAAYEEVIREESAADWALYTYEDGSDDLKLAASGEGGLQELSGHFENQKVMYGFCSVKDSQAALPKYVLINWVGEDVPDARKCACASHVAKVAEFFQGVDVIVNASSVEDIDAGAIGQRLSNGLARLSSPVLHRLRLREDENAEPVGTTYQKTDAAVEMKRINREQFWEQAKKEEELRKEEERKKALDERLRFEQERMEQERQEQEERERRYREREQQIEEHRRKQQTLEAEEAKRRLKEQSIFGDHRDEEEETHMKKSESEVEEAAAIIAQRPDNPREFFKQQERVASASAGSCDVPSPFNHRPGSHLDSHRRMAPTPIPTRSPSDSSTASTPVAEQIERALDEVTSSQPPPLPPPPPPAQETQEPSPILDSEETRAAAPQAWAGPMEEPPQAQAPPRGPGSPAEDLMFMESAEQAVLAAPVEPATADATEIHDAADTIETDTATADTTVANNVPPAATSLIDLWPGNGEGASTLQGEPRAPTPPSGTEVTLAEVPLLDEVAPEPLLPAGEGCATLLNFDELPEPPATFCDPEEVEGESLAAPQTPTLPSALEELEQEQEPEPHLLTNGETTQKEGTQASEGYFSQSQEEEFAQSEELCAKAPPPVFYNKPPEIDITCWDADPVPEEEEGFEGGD
B2: Drebrin (Homo sapiens), Q16643 (parent)
chain: B1 partner
partner: B1 chain

Variants of: B1
Conditions: with dreb_human DBN1, Q16643

| effect of a mutation on the interaction | Variant |
| --- | --- |
| disrupting interaction strength | H311A |

Variants of: B2
Conditions: with zmyd8_human ZMYND8, Q9ULU4

| effect of a mutation on the interaction | Variant |
| --- | --- |
| disrupting interaction strength | R10G |
